Experimental data as given in patent publication US20080292620A1 (Novartis, published 2008).
Numbering of substitutions follows the chain as printed.

Assays:
[1] = biological target: T1, recombinant extracellular domain (ECD) of the human prolactin receptor (PRLR) (human, UniProt P16471 25-234); test: Biacore SPR, antibody covalently immobilized on CM4 chip, PRLR ECD 111 to 1.37 nM
T1 construct: also called PRLR ECD; Human PRLR; not shown: His tag
T1 sequence: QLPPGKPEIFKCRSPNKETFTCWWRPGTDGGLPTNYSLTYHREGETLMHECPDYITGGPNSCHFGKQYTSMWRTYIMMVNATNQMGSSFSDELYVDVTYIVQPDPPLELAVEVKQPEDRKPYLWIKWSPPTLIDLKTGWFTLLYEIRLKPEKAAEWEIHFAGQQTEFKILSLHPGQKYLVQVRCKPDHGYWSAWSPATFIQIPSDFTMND

[2] = biological target: T2, cynomolgus PRLR ECD (cynomolgus, UniProt A0A2K5WXK1 25-234); test: as above
T2 construct: extracellular domain; also called Cyno PRLR
T2 sequence: T1 sequence with I76V, A110T, I125M, I158T, T207I

[3] = biological target: T1, recombinant extracellular domain (ECD) …; test: Biacore SPR, antibody captured on Protein A/G, kinetic titration of PRLR ECD, 1:1 Langmuir
Procedure: (§1) Affinity of the chimerized and Human Engineered™ antibodies determined by Biacore analysis. Briefly, a CM5 sensor chip (Biacore) immobilized with Protein A/G (Pierce) via NHS/EDC was used to capture approximately 600 RU of antibody on the chip surface. Five concentrations of PRLR ECD beginning at 5 ug/mL (185 nM) and serially diluted at 5× dilution to 0.3 nM were injected from lowest to highest concentration in the kinetic titration injection mode, and 15 minutes of dissociation data was collected. The experiments were double-referenced, i.e. an adjacent flow cell response was subtracted automatically, and the response from a buffer injection experiment was subtracted from the experimental data set. Kinetic and derived parameters (kₐ, kd and KD) were determined by fitting to a 1:1 Langmuir model using BiaEval software customized to the kinetic titration injection mode. Affinity measurements of both chimeric and all Human Engineered™ antibodies against human and cynomolgus PRLR ECD are summarized in Table 9 and Table 10.

[4] = biological target: T2, cynomolgus PRLR ECD; test: as above
Procedure: as §1

[5] = biological target: T3, murine PRLR ECD (mouse, UniProt Q08501 20-229); test: Biacore SPR, antibody covalently immobilized on CM4 chip, PRLR ECD 111 to 1.37 nM; same run as N2: KD about 17.6 uM, far above the top concentration of 111 nM, which the text calls not binding effectively
T3 construct: extracellular domain; also called Mouse PRLR
T3 sequence (looked up): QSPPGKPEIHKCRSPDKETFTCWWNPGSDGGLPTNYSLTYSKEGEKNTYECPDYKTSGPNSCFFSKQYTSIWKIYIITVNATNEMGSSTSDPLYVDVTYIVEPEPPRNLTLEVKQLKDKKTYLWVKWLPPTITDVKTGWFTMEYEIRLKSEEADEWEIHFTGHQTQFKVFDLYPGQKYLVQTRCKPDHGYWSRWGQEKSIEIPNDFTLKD
Procedure: (§2) In order to compare rat and mouse cross reactivity using covalently immobilized antibodies, a CM4 chip was coupled with he.06.642-2 and he.06.275-4 antibodies via standard EDC-NHS amine coupling chemistries according to the recommended protocol from Biacore® Inc. The PRLR ECD injections were performed at five concentrations in a three fold titration series starting at 111 nM and going down to 1.37 nM. Regeneration was performed with Glycine pH3.0. The affinity of all of the HE variants of XHA.06.642 and XHA.06.275 are very similar to the affinity of the parental chimeric antibody. Antibody he.06.642-2 binds to human, mouse and rat PRLR with equivalent affinity.

[6] = biological target: T3, murine PRLR ECD; test: Biacore SPR, antibody covalently immobilized on CM4 chip, PRLR ECD 111 to 1.37 nM; same run as N2: antibody covalently immobilized on CM4, PRLR ECD 111 to 1.37 nM; very weak fitted binding
Procedure: as §2

[7] = biological target: T4, rat PRLR ECD (rat, UniProt P05710 20-229); test: Biacore SPR, antibody covalently immobilized on CM4 chip
T4 construct: extracellular domain
T4 sequence (looked up): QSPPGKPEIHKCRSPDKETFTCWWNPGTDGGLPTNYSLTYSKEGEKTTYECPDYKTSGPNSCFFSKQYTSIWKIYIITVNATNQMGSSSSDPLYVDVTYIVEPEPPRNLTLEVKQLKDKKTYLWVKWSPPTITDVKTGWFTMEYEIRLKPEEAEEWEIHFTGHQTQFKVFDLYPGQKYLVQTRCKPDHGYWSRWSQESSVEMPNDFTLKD
Procedure: as §2

B1: he.06.275-4 (antibody, V domains shown)
VH: QVQLQESGPGLVKPSQTLSLTCTVSGYSITSDYAWNWIRQFPGKGLEWMGYISYSGSTSYNPSLKSRITISRDTSKNQFSLQLNSVTAADTAVYFCARDYGYVFDYWGQGTTLTVSS
VL: DVQITQSPSSLSASPGDRITLTCRASKNIYKYLAWYQEKPGKANKLLIYSGSTLHSGIPSRFSGSGSGTDFTLTISSLQPEDFAMYYCQQHNDYPYTFGQGTKLEIK
notes: Human Engineered
With B1 the Kd [1] was 1.3 nM, the Kd [2] was 6.4 nM and the Kd [3] was 0.52 nM. The Kd [4] was 1.7 nM, the Kd [5] was 17600 nM and the koff [6] was 0.037 s⁻¹. For the same binder, the kon [6] was 2100 M⁻¹ s⁻¹ and the binding result [7] was “no binding (tested: PRLR ECD up to 111 nM)”.
